biological target: T1, Rpb1 (RNA polymerase II subunit carrying the C-terminal repeat domain) (S. cerevisiae, UniProt P04050 1-1733); test: cryo-EM structure; PIC-cMed-nucleosome complex assembled from the prepared factors on a His4 promoter / Widom-601 nucleosome template; GraFix sucrose gradient with glutaraldehyde cross-linking; 100 mM KCl, 25 mM K-HEPES pH 7.5, 2 mM MgCl2, 1 mM TCEP; reconstructions at 3.0 Å (PIC-cMed) and 3.6 Å (PIC-cMed-nucleosome), focused maps to 2.9-3.3 Å; conditions: both partners purified
T1 construct: Rpb1, subunit of RNA polymerase II, S. cerevisiae, with its C-terminal repeat domain (CTD) of 26 heptapeptide repeats of consensus YSPTSPS; Stood in the assay as a subunit of Pol II within the PIC; CTD peptides 1, 2 and 3 are stretches of its CTD seen in the map (6, 3 and 2 repeats); their register within the CTD could not be assigned; also called Rpb1 CTD; Pol II CTD
T1 sequence (P04050 whole entry, the tested form may be a part): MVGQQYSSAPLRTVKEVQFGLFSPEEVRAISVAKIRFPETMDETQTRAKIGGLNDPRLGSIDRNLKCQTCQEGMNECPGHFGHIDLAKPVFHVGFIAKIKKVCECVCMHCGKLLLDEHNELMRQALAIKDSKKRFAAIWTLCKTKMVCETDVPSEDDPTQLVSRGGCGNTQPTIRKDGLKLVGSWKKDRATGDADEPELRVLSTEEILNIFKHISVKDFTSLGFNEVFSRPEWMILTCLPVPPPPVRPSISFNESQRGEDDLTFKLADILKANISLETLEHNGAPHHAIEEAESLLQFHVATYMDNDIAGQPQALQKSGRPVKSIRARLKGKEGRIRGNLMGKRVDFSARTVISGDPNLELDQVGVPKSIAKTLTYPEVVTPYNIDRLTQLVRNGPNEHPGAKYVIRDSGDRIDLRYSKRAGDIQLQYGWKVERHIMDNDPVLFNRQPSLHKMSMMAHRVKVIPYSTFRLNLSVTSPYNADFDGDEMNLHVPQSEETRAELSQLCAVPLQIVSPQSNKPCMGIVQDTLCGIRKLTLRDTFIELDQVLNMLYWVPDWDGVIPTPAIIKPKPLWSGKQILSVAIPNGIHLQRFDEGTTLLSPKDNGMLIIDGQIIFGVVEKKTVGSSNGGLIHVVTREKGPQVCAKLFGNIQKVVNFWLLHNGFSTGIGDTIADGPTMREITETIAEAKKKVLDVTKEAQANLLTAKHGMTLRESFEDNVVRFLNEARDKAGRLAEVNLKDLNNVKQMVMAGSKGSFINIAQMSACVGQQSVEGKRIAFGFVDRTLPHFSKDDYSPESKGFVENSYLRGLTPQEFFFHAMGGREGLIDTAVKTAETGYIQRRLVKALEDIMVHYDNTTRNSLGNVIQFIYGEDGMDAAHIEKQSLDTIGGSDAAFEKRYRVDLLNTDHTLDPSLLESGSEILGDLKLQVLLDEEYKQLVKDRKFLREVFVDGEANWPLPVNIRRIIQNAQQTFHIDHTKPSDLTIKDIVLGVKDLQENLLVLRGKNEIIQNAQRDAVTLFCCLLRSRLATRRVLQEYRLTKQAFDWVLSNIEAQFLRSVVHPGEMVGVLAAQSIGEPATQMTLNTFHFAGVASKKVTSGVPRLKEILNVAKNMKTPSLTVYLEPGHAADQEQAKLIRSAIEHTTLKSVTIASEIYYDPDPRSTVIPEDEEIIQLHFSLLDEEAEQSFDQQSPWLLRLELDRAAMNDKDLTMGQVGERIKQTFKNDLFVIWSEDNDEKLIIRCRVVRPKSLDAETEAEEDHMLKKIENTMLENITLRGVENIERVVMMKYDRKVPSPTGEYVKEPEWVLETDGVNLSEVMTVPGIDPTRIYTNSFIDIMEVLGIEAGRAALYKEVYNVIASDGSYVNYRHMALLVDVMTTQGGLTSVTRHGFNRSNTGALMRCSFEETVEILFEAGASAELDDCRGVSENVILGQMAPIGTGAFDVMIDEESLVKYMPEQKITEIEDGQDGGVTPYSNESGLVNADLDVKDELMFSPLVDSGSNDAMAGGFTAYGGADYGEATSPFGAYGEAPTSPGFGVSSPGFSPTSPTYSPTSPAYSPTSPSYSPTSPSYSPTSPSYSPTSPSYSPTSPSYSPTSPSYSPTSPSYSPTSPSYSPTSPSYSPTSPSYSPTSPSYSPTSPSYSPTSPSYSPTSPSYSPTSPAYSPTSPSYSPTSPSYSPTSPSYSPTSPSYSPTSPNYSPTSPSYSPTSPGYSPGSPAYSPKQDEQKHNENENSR

| Binder | binding result |
| --- | --- |
| Med4 (natural protein, S. cerevisiae, Med4, Mediator middle module subunit, S. cerevisiae; Stood in the assay as a subunit of cMed) MSVQDTKAVEFSMGHIRSSSVSLVAEATSNTNSEDKLSKVQLYEDLCRYEDTLSKLVESVDRFKPNLDIAKDLIRTDEALFENVKLLAEYDNIYRNLQKIDKDSEELDSKTRKILEILNECHDELKALPMLEQVEFEKNTILQQRSKINSTELLDYATKLSKFTKIPPTFDKGAVGPNNFIWPAEDALRRGMLAMASLHSKELTRIPGEEVEETEVPTVPPSQSEEQKGQMAKKEGTPKTDSFIFDGTAKEVGDEADNTKDKEKEENNDDALDLDLDLFDPDDF | binds |
| Med10 (natural protein, S. cerevisiae, Med10, Mediator subunit (hook domain), S. cerevisiae; Stood in the assay as a subunit of cMed) MNGNSTNNEQLQQELATTQDQVASIIESFVELGVSIYDFPGTPEATKGMITNLQRNVDRLYKLNVRSNDPQSSLSKVDIPLEVVQYIEDGRNPDIYTREFVEAIRRSNQYQRGKMHGLKQLRDSLADKIVDEFPELKEPVEDIIKRTSPIDNVSNTH | binds |
| Med21 (natural protein, S. cerevisiae, Med21, Mediator subunit (hook domain), S. cerevisiae; Stood in the assay as a subunit of cMed) MTDRLTQLQICLDQMTEQFCATLNYIDKNHGFERLTVNEPQMSDKHATVVPPEEFSNTIDELSTDIILKTRQINKLIDSLPGVDVSAEEQLRKIDMLQKKLVEVEDEKIEAIKKKEKLLRHVDSLIEDFVDGIANSKKST | binds |
| Med8 (natural protein, S. cerevisiae, Med8, Mediator head module subunit, S. cerevisiae; Stood in the assay as a subunit of cMed) MSQSTASLVPEGNQGSLQEDVSFDFNGVPGQALDAVRMRLAQLTHSLRRIRDEMSKAELPQWYTLQSQLNVTLSQLVSVTSTLQHFQETLDSTVVYPLPKFPTTSHESLVTTLLRKKNIPEVDEWMKYVRETSGVTTALLKDEEIEKLLQQDREITNWARTTFRNEYGKHDFKNEESLSEEHASLLVRDSKPSKPFNVDDVLKFTFTGEKPIITGSTSTSSSN | binds |

Other lines, results leading:

| binding result | Binder |
| --- | --- |
| binds | Med17 (natural protein, S. cerevisiae, Med17, Mediator head module subunit, S. cerevisiae; Stood in the assay as a subunit of cMed) MTTEDPDSNHLSSETGIKLALDPNLITLALSSNPNSSLHSPTSDEPVPESAGKADTSIRLEGDELENKTKKDNDKNLKFLKNKDSLVSNPHEIYGSMPLEQLIPIILRQRGPGFKFVDLNEKELQNEIKQLGSDSSDGHNSEKKDTDGADENVQIGEDFMEVDYEDKDNPVDSRNETDHKTNENGETDDNIETVMTQEQFVKRRRDMLEHINLAMNESSLALEFVSLLLSSVKESTGMSSMSPFLRKVVKPSSLNSDKIPYVAPTKKEYIELDILNKGWKLQSLNESKDLLRASFNKLSSILQNEHDYWNKIMQSISNKDVIFKIRDRTSGQKLLAIKYGYEDSGSTYKHDRGIANIRNNIESQNLDLIPHSSSVFKGTDFVHSVKKFLRVRIFTKIESEDDYILSGESVMDRDSESEEAETKDIRKQIQLLKKIIFEKELMYQIKKECALLISYGVSIENENKVIIELPNEKFEIELLSLDDDSIVNHEQDLPKINDKRANLMLVMLRLLLVVIFKKTLRSRISSPHGLINLNVDDDILIIRPILGKVRFANYKLLLKKIIKDYVLDIVPGSSITETEVEREQPQENKNIDDENITKLNKEIRAFDKLLNIPRRELKINLPLTEHKSPNLSLMLESPNYCNALIHIKFSAGTEANAVSFDTTFSDFKEVEDFLHFIVAEYIQQKKV |
| binds | Med6 (natural protein, S. cerevisiae, Med6, Mediator head module subunit, S. cerevisiae; Stood in the assay as a subunit of cMed) MNVTPLDELQWKSPEWIQVFGLRTENVLDYFAESPFFDKTSNNQVIKMQRQFSQLNDPNAAVNMTQNIMTLPDGKNGNLEEEFAYVDPARRQILFKYPMYMQLEEELMKLDGTEYVLSSVREPDFWVIRKQRRTNNSGVGSAKGPEIIPLQDYYIIGANIYQSPTIFKIVQSRLMSTSYHLNSTLESLYDLIEFQPSQGVHYKVPTDTSTTATAATNGNNAGGGSNKSSVRPTGGANMATVPSTTNVNMTVNTMGTGGQTIDNGTGRTGNGNMGITTEMLDKLMVTSIRSTPNYI |
| binds | Med7 (natural protein, S. cerevisiae, UniProt Q08278 1-222, looked up, Med7, Mediator middle module subunit, S. cerevisiae; Stood in the assay as a subunit of cMed) MSNDPGNEVSSLYPPPPPYVKFFTQSNLEKLPKYKEKKAASAKQTAPNNSNGGSEEEITCALDYLIPPPMPKNQQYRAFGSIWQVKDQLPDLESMGLTQLYKKSTENESTNYQYKIQELRKLLKSLLLNYLELIGVLSINPDMYERKVENIRTILVNIHHLLNEYRPHQSRESLIMLLEEQLEYKRGEIREIEQVCKQVHDKLTSIQDTLRTGSQSPPSSSQ |
